# Assay results: PMC5925748 (Molecular cancer therapeutics, 2017)
# B1: necitumumab Fab (Fab11F8) (Fab, V domains shown)
# VH: QVQLQESGPGLVKPSQTLSLTCTVSGGSISSGDYYWSWIRQPPGKGLEWIGYIYYSGSTDYNPSLKSRVTMSVDTSKNQFSLKVNSVTAADTAVYYCARVSIFGVGTFDYWGQGTLVTVSS
# VL: EIVMTQSPATLSLSPGERATLSCRASQSVSSYLAWYQQKPGQAPRLLIYDASNRATGIPARFSGSGSGTDFTLTISSLEPEDFAVYYCHQYGSTPLTFGGGTKAEIK
# Biological target: sEGFR (soluble extracellular region of EGFR, wild type) (Homo sapiens, UniProt P00533)
# Assay: SPR
binder,measurement,value
B1,Kd,6.1 nM
